1 molecule from PMC9293640, “Insights into the structural dynamics and helicase-catalyzed unfolding of plant RNA G-quadruplexes” can be followed below.

Data set [1] addresses T1, DExH1 (Arabidopsis thaliana, UniProt F4ILR7 1-995).
T1 sequence: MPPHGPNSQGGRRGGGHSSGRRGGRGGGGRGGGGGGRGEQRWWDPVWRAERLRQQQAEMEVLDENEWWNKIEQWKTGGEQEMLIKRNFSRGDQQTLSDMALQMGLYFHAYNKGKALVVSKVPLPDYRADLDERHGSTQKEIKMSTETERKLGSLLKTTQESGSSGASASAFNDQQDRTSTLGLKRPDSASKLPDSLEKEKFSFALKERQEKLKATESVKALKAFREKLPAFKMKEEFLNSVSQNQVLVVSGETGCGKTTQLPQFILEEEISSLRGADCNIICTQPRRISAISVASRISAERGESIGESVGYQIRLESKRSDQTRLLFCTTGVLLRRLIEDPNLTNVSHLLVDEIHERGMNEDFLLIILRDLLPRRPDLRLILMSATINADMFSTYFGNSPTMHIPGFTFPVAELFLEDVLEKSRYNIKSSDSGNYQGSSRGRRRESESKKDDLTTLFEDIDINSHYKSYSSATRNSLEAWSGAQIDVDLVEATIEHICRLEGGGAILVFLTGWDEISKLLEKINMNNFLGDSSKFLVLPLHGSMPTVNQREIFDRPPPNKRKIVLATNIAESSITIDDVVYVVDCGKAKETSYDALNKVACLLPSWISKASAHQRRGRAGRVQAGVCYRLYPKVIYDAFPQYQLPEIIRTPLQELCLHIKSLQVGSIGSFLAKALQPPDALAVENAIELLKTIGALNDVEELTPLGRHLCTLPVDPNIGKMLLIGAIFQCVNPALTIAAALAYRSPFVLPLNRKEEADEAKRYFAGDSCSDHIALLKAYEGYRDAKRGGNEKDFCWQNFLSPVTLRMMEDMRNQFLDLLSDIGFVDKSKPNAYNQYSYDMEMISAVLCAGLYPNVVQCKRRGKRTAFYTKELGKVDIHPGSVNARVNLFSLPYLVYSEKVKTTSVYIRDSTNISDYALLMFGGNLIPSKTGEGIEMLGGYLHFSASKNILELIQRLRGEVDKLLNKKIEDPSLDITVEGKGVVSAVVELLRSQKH
Description: MST; preferred substrate (3' tail rG4); EC50 only in figure; MST: 20 nM FAM-RNA, buffer not in material; pull-down: 20 mM Tris-HCl pH 7.5, 300 mM KCl, 0.1% Tween-20, 2 mM EDTA, RNase inhibitor, 4 °C 4 h. Conditions: protein: recombinant; tags: 6xHis-SUMO removed; label: 3'-FAM; G4, 3' ss tail 15 nt.

Data set [2] deals with T2, DExH15 (Arabidopsis thaliana, UniProt B9DFG3 1-1171).
T2 sequence: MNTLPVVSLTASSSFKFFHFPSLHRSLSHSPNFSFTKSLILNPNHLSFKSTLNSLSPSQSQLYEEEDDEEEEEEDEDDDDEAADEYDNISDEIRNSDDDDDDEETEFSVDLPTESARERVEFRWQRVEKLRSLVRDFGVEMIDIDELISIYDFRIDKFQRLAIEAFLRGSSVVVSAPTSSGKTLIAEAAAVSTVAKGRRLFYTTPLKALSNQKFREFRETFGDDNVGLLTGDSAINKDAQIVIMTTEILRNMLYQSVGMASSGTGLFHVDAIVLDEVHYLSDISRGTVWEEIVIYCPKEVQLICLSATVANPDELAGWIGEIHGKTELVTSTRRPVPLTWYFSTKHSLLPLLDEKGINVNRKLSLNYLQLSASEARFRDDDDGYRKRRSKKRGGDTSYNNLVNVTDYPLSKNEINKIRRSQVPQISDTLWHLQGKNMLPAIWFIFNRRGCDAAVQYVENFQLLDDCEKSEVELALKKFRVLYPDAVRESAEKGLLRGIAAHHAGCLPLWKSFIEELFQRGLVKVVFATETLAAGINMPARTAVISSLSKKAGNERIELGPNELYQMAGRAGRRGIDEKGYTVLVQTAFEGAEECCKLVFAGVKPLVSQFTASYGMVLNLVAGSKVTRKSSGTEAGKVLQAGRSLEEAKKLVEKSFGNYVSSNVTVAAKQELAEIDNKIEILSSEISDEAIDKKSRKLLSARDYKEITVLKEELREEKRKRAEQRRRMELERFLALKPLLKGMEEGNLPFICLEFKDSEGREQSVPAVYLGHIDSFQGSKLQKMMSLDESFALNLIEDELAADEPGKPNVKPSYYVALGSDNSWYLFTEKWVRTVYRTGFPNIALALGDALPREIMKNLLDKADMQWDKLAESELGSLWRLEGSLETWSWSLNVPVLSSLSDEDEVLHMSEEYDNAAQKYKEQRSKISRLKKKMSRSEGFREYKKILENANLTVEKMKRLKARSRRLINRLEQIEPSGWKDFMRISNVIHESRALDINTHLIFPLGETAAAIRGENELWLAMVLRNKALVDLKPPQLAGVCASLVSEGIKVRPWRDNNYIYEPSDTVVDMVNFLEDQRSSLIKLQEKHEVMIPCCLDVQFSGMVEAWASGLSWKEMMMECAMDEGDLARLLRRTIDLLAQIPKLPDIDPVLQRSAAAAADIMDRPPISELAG
The data set is described as above. Conditions: protein: recombinant; tags: 6xHis-SUMO removed; label: 3'-FAM; G4, 3' ss tail 15 nt.

B1: G4S (3' tail rG4) (structured_RNA)
RNA: GGGAGGGAAGGGGAAGGGGUUUUUUUUUUUUUUU
As to B1, the binding result in data set [1] and in data set [2] was “binds” throughout.
